Assays:
[1] = molecular target: T1, A subunit of Enterococcus hirae V-ATPase, wild type (Enterococcus hirae, UniProt Q08636 1-593); assay: native gel or EMSA; purified A3B3 and DF complexes mixed in a 1:5 molar ratio, 1 h on ice; formation of A3B3DF (V1) confirmed by basic native-PAGE; conditions: both partners purified
T1 construct: A subunit of Enterococcus hirae V-ATPase; synthetic gene with E. coli codon usage in pET23d; also called A monomer; source: E. coli BL21 (DE3), purified
T1 sequence (looked up): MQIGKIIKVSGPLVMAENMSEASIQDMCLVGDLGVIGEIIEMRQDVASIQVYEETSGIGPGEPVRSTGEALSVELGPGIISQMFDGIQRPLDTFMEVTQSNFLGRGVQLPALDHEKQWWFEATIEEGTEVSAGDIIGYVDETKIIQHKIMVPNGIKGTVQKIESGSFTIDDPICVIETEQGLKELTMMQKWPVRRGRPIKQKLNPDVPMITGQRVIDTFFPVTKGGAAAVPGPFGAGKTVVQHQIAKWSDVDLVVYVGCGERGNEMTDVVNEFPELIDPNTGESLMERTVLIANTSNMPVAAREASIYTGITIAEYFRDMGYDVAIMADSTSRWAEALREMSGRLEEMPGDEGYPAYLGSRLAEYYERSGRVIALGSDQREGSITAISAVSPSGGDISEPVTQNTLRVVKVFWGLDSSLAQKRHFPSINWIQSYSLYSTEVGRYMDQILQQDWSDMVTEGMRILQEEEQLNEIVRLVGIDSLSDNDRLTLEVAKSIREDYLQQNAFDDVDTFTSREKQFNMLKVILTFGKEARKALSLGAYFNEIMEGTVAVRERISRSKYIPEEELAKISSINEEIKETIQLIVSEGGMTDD

[2] = molecular target: T2, B subunit of Enterococcus hirae V-ATPase, wild type (Enterococcus hirae, UniProt Q08637 1-458); assay: as above; conditions: both partners purified
T2 construct: B subunit of Enterococcus hirae V-ATPase; synthetic gene with E. coli codon usage in pET23d; also called B monomer; source: E. coli BL21 (DE3), purified
T2 sequence (looked up): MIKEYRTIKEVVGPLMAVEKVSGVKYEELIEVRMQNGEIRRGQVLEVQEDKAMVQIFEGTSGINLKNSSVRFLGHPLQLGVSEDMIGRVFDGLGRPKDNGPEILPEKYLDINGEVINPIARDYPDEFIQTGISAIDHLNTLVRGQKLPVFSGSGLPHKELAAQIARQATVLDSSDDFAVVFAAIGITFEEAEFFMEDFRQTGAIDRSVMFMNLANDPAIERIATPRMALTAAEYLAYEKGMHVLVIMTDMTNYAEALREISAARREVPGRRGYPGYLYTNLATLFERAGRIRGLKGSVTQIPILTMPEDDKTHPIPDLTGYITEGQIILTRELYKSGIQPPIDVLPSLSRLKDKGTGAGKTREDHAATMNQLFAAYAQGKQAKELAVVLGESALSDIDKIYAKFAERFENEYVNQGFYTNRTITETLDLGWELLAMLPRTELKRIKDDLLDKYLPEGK

B1: D subunit of Enterococcus hirae V-ATPase, wild type (natural protein, UniProt P43435 1-210, looked up)
chain: MRLNVNPTRMELTRLKKQLTTATRGHKLLKDKQDELMRQFILLIRKNNELRQAIEKETQTAMKDFVLAKSTVEEAFIDELLALPAENVSISVVEKNIMSVKVPLMNFQYDETLNETPLEYGYLHSNAELDRSIDGFTQLLPKLLKLAEVEKTCQLMAEEIEKTRRRVNALEYMTIPQLEETIYYIKMKLEENERAEVTRLIKVKNMGTEE
notes: D subunit of Enterococcus hirae V-ATPase; Was never handled alone; stands here for the pairs of subunits inside the DF and A3B3DF complexes; source: E. coli cell-free protein expression system, synthesized together with F, purified
B1: binds [1]; binds [2].

Source: PMC3772951 (PLoS ONE, 2013)
